According to article PMC7472703, “DNA methylation suppresses chitin degradation and promotes the wing development by inhibiting Bmara-mediated chitinase expression in the silkworm, Bombyx mori”:

T1: Bmara (homeobox protein araucan) (Bombyx mori, UniProt A0A8R1WJM2 5-477)
T1 sequence: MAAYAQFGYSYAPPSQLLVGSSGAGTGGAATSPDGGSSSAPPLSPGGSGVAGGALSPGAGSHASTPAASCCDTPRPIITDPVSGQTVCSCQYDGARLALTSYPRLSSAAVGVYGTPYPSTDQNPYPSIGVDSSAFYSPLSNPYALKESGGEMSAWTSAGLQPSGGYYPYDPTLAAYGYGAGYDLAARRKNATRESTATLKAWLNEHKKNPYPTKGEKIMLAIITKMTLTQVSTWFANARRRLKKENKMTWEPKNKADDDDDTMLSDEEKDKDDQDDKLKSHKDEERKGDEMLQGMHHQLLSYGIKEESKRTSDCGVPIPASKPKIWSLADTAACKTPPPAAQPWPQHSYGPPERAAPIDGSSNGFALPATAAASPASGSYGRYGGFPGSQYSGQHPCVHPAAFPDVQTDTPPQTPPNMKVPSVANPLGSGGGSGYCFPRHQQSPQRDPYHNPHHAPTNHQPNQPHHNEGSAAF


Target: T1, Bmara (homeobox protein araucan)
Test: EMSA; 5 mM MgCl2, 4 mM EDTA; EMSA: 50 mM KCl, 5 mM MgCl2, 4 mM EDTA, 2.5% glycerol, 0.05% NP-40, 50 ng poly(dI-dC), 20 fmol probe, 20 uL, 20 min RT. Pull-down: 10 mM HEPES pH 7.6, 100 mM K
Settings: protein: recombinant; tags: 6xHis (pET-28a/32a); label: 5' biotin; blunt

Binder	binding result
Wt CRE probe (BmCHT10 promoter -250 to -225; legend -250 to -221) (dsDNA) DNA 1: TTCAGTCCACGGCTGTCTTTCAACACGGA DNA 2: TCCGTGTTGAAAGACAGCCGTGGACTGAA	binds
Mut-CRE probe (dsDNA) DNA 1: TTCAGTCCACGGCGTGACTTTCGACCGGA DNA 2: TCCGGTCGAAAGTCACGCCGTGGACTGAA	no binding
